How the values were obtained:
Human mPB CD34+ cells = test: Proliferative activity on human granulocyte progenitors (flow cytometry); format: cell-based; settings: for Number of CD45RA− CD41−: 7 days
Procedure: Human mPB CD34^+ cells were purchased from AllCells. Cells were resuspended in HSC expansion medium (StemSpan SFEM, StemCell Technologies) supplemented with 1× antibiotics and the following recombinant human cytokines thrombopoietin, IL6, Flt3 ligand, and stem cell factor (100 ng/mL, R & D Systems), then plated in 96-well plates (1000 cells per well), with varied concentrations of BLV1H12-bGCSF fusion antibodies. Cells were cultured for 7 days at 37° C. in a 5% CO2 incubator, then analyzed by flow cytometry to measure cell number and expression of CD45ra and CD41. Cells were stained in staining medium (HBSS supplemented with 2% FBS and 2 mM EDTA) at 4° C. for 1 h with PECy7 anti-CD45ra and eFluor 450 anti-CD41 (eBiosciences), then washed with staining medium and analyzed. Multicolor analysis for cell phenotyping was performed on a LSR II flow cytometer (Becton Dickinson). FIGS. 10A-10E and Tables 9-10 show the human granulocyte progenitor cell proliferative activities of the Ab-GCSF fusion antibodies.

mice neutrophils = test: Neutrophils counts in mice; format: in vivo; settings: mice blood, 10th day post-injection, neutrophils among white blood cells
Procedure: On the 10th day after injection of BLV1H12-bGCSF fusion antibodies into mice for PK study, blood samples were drawn from the mice and stained using the Diff Quick Staining Kit (Thermo Fisher Scientific, IL). Neutrophils and white blood cells were counted under microscope and the percentages of neutrophils were analyzed. FIGS. 12A-12B and Table 12 show proliferative activities of BLV1H12-bGCSF fusion antibodies on mice neutrophils that are blood stained and counted at the 10th day post-injection.

Mouse NFS-60 cells = test: Proliferation assay on mouse NFS-60 cells (AlamarBlue); format: cell-based; settings: for F.I. (AlamarBlue fluorescence at 595 nm, cell viability): 72 hours
Procedure: Mouse NFS-60 cells were obtained from American Type Culture Collection (ATCC), VA, and cultured in RPMI-1640 medium supplemented with 10% fetal bovine serum (FBS), 0.05 mM 2-mercapoethanol and 62 ng/ml human macrophage colony stimulating factor (M-CSF). For proliferation assay, mouse NFS-60 cells were washed three times with RPMI-1640 medium and resuspended in RPMI-1640 medium with 10% FBS and 0.05 mM 2-mercapoethanol at a density of 1.5×10^5 cells/ml. In 96-well plates, 100 μl of cell suspension was added into each well, followed by the addition of varied concentrations of bGCSF, BLV1H12 antibody, and the immunoglobulin constructs described herein, Equal volume of PBS buffer was added into the control wells. The plates were incubated at 37° C. in a 5% CO2 incubator for 72 hours. Cells were then treated with AlamarBlue (Invitrogen) ( 1/10 volume of cell suspension) for 4 hours at 37° C. Fluorescence at 595 nm for each well was read to indicate the cell viability.

B1: Ab: bovine BLV1H12 antibody with ultralong CDR3, no inserted polypeptide; heavy chain SEQ ID NO: 24, light chain SEQ ID NO: 23 (antibody)
heavy: QVQLRESGPSLVKPSQTLSLTCTASGFSLSDKAVGWVRQAPGKALEWLGSIDTGGNTGYNPGLKSRLSITKDNSKSQVSLSVSSVTTEDSATYYCTSVHQETKKYQSCPDGYRERSDCSNRPACGTSDCCRVSVFGNCLTTLPVSYSYTYNYEWHVDVWGQGLLVTVSS
light: QAVLNQPSSVSGSLGQRVSITCSGSSSNVGNGYVSWYQLIPGSAPRTLIYGDTSRASGVPDRFSGSRSGNTATLTISSLQAEDEADYFCASAEDSSSNAVFGSGTTLTVLGQPKSPPSVTLFPPSTEELNGNKATLVCLISDFYPGSVTVVWKADGSTITRNVETTRASKQSNSKYAASSYLSLTSSDWKSKGSYSCEVTHEGSTVTKTVKPSECS
Human mPB CD34+ cells
  human granulocyte progenitor cell proliferative activity: lack of proliferative activity
Human mPB CD34+ cells; 0.28959 ng/mL
  Number of CD45RA− CD41−: 3666
Human mPB CD34+ cells; 0.86877 ng/mL
  Number of CD45RA− CD41−: 3839
Human mPB CD34+ cells; 2.60631 ng/mL
  Number of CD45RA− CD41−: 3852
Human mPB CD34+ cells; 23.45679 ng/mL
  Number of CD45RA− CD41−: 3519
Human mPB CD34+ cells; 70.37037 ng/mL
  Number of CD45RA− CD41−: 3541
Human mPB CD34+ cells; 211.11111 ng/mL
  Number of CD45RA− CD41−: 3606
Human mPB CD34+ cells; 5700 ng/mL
  Number of CD45RA− CD41−: 4100
Mice neutrophils
  Percentage of Neutrophil: 18.81
Mouse NFS-60 cells
  proliferative activity on mouse NFS-60 cells: lack of proliferative activity
Mouse NFS-60 cells; 0.45725 ng/mL
  F.I. (AlamarBlue fluorescence at 595 nm, cell viability): 1040
Mouse NFS-60 cells; 1.37174 ng/mL
  F.I. (AlamarBlue fluorescence at 595 nm, cell viability): 1010
Mouse NFS-60 cells; 4.11523 ng/mL
  F.I. (AlamarBlue fluorescence at 595 nm, cell viability): 983.3
Mouse NFS-60 cells; 12.34568 ng/mL
  F.I. (AlamarBlue fluorescence at 595 nm, cell viability): 971.8
Mouse NFS-60 cells; 37.03704 ng/mL
  F.I. (AlamarBlue fluorescence at 595 nm, cell viability): 960.5
Mouse NFS-60 cells; 111.11111 ng/mL
  F.I. (AlamarBlue fluorescence at 595 nm, cell viability): 991.83
Mouse NFS-60 cells; 333.33333 ng/mL
  F.I. (AlamarBlue fluorescence at 595 nm, cell viability): 964.798
